Data as given in patent US20170362324A1 (Biogen, published 2017).
Positions count from the first letter of the chain named. Numbers in names are those of the source. Like-named read-outs stand apart in the source and are kept apart here. Values belong to the binder of their own block, whether it stands above or below them.

Columns and labels:
[1] = molecular target: T1, human soluble αvβ5 protein (extracellular domains of human αv and β5 integrin subunits) (human, UniProt P06756 31-992; P18084 24-719); experiment: ELISA, biotin-αvβ5 on streptavidin plate, unpurified antibody
T1 construct: also called biotin-αvβ5; hsαvβ5
Protocol: Solid-Phase αvβ5 Binding Assay (ELISA): A 96-well microtiter plate was precoated with streptavidin (Thermo Scientific Reacti-Bind StreptAvidin Coated High Binding Capacity plate) was used. Biotinylated soluble αvβ5 protein (2 μg/mL) in TBS with 1% BSA was added to the wells, and the plate was incubated for 1 hr at 25° C. The plate was washed with wash buffer (0.05% Tween-20 in PBS), and purified humanized ALULA antibody in TBS containing 1% BSA, 1 mM CaCl2, and 1 mM MgCl2 were added (50 μl/well). The plate was incubated for 1 hr at 25° C., washed, and then incubated for 1 hr with 50 μl/well of […] goat anti-human secondary antibody. Bound antibody was detected using 3,3′,5,5′-tetramethylbenzidine (TMB). Binding was indicated by the absorbency measured at 450 nm.
(§1) Screening of all combinations of heavy chain versions VH0, VH1, VH2, VH3, VH4, or VH5, with light chains VL0, VL1, VL2, or VL3 was carried out using unpurified proteins in conditioned cell media. The binding of each construct to biotin-conjugated human αvβ5 protein was determined using a solid-phase binding assay (ELISA) and by FACS, and the ability of each construct to block ligand binding was determined using a vitronectin cell adhesion assay (Table 1).

[2] = molecular target: T1, human soluble αvβ5 protein …; experiment: ELISA, inhibition of soluble αvβ5 binding to coated human plasma vitronectin
Protocol: Vitronectin Inhibition ELISA: 96-well microtiter plates were coated with 5 μg/ml purified human plasma vitronectin diluted in PBS (50 μl/well) at 4° C. overnight. After the coating solution was removed, the plates were blocked with 300 μl/well of 1% BSA/TBS at 25° C. for 1 hr. The plate was washed with wash buffer (0.05% Tween-20 in TBS containing 1 mM CaCl₂ and 1 mM MgCl₂), and dilutions of humanized antibodies mixed with 1 nM soluble αvβ5 protein in TBS containing 1% BSA, 1 mM CaCl₂ and 1 mM MgCl₂ were added (50 μl/well) and incubated at 25° C. for 1 hr. The plate was washed 4 times with wash buffer in an automated plate washer and incubated sequentially with 50 μl/well of the anti-beta5 monoclonal antibody 15F11 (at 0.5 ug/mL) in for 1 hr at 25° C. in TBS containing 1% BSA, 1 mM CaCl₂ and 1 mM MgCl₂. After washing the plate 4 times with wash buffer, 100 μl/well of a 1:5000 dilution of a peroxidase-conjugated goat anti-mouse antibody in TBS containing 1% BSA, 1 mM CaCl₂ and 1 mM MgCl₂ were added and incubated for 1 hr at 25° C. Bound protein was detected using the TMB substrate and indicated by the absorbency measured at 450 nm.
In parallel, the humanized ALULA antibodies were tested in two adhesion assays. One measured the ability of each antibody to inhibit the binding of soluble αvβ5 to purified human plasma vitronectin. In the other assay, the murine BaF3 cell line was stably transfected with human αv and β5 subunits, and the adhesion of these cells to vitronectin was determined using a fluorescence endpoint.

[3] = molecular target: T2, human αvβ5 expressed on BaF3 cells (stably transfected with human αv and β5 subunits) (human, UniProt P06756 31-1048; P18084 24-799); experiment: FACS on αvβ5-BaF3 cells, unpurified antibody
T2 construct: also called αvβ5-BaF3; BaF3-hu αvβ5
Protocol: FACS Binding Assay: Cells were washed one time in PBS, and then resuspended in FACS buffer (1×PBS, 1% BSA, 1 mM CaCl₂, and 1 mM MgCl₂). 1×10⁶ cells were then incubated on ice for 1 hr in FACS buffer containing the test antibody in a total volume of 50 μl. After incubation, the cells were washed two times with ice cold FACS buffer, resuspended in 50 μl of FACS buffer containing 3 μg/ml goat anti-mouse IgG AlexaFluor488 (Jackson ImmunoResearch), and incubated on ice for 30 min. The cells were then washed twice with ice cold FACS buffer and fixed in 1% PFA overnight. Cell aggregates were removed by filtering through 40 μm filter plates (Millipore) and binding of the labeled secondary antibody was monitored by flow cytometry using a FACS Calibur (BD Biosciences).
as §1

[4] = molecular target: T2, human αvβ5 expressed on BaF3 cells …; experiment: cell-based or functional assay
[5] = molecular target: T2, human αvβ5 expressed on BaF3 cells …; experiment: cell-based or functional assay; remark: listed apart in the source
[6] = molecular target: T1, human soluble αvβ5 protein …; experiment: competition ELISA against 1 nM murine ALULA on coated soluble human αvβ5
Protocol: Competition ELISA: A 96-well microtiter plate was coated with 50 μl/well of 5 μg/mL soluble human αvβ5 protein at 4° C. overnight. The plate was washed with wash buffer (0.05% Tween-20 in PBS) four times in an automated plate washer. 300 μl/well of 1% BSA in PBS was added and incubated for 1 hr at 25° C. to block nonspecific binding. The plate was washed as above, and dilutions of humanized antibodies mixed with 1 nM murine ALULA in PBS containing 1% BSA, were added (50 μl/well). The plate was incubated for 1 hr at 25° C., washed, and then incubated for 40 minutes with 100 μl/well of […] goat anti-mouse antibody. Bound antibody was detected using 3,3′,5,5′-tetramethylbenzidine (TMB). Binding was indicated by the absorbency measured at 450 nm.
The binding of each construct to soluble, purified human αvβ5 protein was determined by a competition ELISA with murine ALULA (FIG. 4). […] The remaining constructs behaved similarly, with version H4/L2 showing the lowest IC50 value in this assay.

[7] = molecular target: T1, human soluble αvβ5 protein …; experiment: ELISA, Fab blocking of 2 nM soluble αvβ5 binding to immobilized human plasma vitronectin
Protocol: Fab fragments of the four constructs of Example 6 were generated from the corresponding IgG1(N297Q) versions by digestion with papain. The ability of each Fab to block 2 nM soluble αvβ5 binding to immobilized human plasma vitronectin was determined by ELISA.

T1 sequence (P06756 31-992 limits assumed, chain 1 of 2): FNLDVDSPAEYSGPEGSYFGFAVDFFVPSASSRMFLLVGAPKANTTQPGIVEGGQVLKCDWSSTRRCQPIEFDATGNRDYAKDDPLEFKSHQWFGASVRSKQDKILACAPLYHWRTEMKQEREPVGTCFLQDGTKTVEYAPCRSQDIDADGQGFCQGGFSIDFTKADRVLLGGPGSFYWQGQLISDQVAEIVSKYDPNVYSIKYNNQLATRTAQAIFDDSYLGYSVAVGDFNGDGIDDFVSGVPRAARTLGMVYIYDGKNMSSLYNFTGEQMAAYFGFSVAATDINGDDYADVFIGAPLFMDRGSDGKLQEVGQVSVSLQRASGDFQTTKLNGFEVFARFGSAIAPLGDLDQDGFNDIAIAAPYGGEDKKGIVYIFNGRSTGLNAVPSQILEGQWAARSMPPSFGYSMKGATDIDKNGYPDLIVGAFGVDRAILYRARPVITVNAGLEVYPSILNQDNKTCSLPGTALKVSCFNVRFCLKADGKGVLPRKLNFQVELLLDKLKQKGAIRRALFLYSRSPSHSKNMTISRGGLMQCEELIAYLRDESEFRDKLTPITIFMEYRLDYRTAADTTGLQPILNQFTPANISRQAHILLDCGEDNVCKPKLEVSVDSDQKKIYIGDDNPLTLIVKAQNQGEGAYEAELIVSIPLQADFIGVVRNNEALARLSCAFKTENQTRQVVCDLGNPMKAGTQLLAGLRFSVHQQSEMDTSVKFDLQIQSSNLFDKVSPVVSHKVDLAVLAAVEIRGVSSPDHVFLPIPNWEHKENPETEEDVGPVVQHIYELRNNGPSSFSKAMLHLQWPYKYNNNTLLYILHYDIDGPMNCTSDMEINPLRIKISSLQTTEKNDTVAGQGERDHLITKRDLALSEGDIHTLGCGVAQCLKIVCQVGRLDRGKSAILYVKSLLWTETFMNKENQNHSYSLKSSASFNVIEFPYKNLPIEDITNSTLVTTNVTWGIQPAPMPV
T1 sequence (P18084 24-719 limits assumed, chain 2 of 2): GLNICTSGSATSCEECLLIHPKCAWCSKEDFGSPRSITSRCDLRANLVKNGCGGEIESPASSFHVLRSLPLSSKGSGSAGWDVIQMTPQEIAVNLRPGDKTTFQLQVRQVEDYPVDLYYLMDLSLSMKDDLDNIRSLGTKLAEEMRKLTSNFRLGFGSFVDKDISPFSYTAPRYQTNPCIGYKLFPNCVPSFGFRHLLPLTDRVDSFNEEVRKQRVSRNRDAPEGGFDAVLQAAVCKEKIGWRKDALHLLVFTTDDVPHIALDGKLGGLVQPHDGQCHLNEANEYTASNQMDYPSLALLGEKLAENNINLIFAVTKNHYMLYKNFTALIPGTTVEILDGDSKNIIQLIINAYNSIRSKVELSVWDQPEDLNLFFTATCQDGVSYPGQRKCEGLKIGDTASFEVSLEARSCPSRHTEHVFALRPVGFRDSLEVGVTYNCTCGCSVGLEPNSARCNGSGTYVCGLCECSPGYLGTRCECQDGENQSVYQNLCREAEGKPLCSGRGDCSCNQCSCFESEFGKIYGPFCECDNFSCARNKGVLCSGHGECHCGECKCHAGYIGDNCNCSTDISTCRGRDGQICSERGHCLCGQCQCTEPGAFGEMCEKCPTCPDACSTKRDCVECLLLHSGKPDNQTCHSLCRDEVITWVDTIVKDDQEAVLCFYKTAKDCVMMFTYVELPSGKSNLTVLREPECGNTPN
T2 sequence (P06756 31-1048 limits assumed, chain 1 of 2): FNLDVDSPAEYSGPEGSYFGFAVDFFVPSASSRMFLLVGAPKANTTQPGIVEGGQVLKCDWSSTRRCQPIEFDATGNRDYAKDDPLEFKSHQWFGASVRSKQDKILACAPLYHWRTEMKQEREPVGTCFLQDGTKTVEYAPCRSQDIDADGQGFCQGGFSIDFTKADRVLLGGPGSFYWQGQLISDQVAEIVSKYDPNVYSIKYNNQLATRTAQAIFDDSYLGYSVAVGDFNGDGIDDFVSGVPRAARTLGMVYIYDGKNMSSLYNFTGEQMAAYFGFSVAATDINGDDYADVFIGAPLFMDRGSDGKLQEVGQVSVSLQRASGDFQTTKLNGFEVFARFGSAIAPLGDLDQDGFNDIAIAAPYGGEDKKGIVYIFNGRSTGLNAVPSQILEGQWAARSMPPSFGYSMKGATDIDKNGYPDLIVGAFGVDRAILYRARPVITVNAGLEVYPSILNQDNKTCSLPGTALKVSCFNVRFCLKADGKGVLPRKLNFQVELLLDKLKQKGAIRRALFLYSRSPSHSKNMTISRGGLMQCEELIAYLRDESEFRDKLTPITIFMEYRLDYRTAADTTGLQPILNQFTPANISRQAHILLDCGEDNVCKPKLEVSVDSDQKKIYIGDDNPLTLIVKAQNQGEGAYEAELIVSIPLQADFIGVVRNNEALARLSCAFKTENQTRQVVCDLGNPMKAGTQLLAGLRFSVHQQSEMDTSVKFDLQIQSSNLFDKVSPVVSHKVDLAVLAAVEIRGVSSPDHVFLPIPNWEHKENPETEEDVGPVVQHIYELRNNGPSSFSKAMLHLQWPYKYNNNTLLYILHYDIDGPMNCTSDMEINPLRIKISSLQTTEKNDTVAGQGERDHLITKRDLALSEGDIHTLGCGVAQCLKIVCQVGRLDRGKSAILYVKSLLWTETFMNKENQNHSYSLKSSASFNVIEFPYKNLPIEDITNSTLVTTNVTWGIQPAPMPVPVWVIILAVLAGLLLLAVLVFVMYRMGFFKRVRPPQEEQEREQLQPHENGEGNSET
T2 sequence (P18084 24-799 limits assumed, chain 2 of 2): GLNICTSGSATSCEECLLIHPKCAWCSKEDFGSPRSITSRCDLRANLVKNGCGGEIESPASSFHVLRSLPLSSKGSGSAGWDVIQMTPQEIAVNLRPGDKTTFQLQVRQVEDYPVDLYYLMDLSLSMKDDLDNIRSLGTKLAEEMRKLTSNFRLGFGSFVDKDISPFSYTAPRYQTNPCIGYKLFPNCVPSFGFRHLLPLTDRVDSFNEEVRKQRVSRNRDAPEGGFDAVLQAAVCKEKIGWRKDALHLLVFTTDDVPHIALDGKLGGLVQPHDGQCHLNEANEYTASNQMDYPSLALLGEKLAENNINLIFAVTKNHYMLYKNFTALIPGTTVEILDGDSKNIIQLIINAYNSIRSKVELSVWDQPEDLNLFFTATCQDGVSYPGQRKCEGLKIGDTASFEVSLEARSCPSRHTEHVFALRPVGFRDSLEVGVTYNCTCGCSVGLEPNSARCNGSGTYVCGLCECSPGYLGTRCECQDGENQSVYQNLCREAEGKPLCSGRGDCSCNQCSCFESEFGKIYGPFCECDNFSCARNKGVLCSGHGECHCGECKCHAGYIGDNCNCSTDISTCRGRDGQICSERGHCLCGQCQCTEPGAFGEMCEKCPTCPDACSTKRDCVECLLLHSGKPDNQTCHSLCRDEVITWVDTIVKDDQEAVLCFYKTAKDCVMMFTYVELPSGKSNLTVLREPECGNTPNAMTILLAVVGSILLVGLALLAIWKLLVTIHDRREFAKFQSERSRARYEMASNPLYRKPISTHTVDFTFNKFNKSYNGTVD

B1: VH0/VL0 Agly-hIgG1(T299A) (antibody, V domains shown)
VH: EVQLVESGGGLVKPGGSLRLSCAASGYTFTSYWMHWVRQAPGKGLEWVGAIYPGNSDTSYNQKFKGRFTISRDDSKNTLYLQMNSLKTEDTAVYYCTTTTYGYDWFAYWGQGTLVTVSS
VL: DIQMTQSPSSVSASVGDRVTITCKSSQSVLYSSNQKNYLAWYQQKPGKAPKLLIYWASTRESGVPSRFSGSGSGTDFTLTISSLQPEDFATYYCHQYLSSLTFGQGTKVEIK
notes: also called H0/L0
EC50 [1]: 1.2 nM
IC50 [2]: 11.1 nM
EC50 [3]: 1120 nM
VN adhesion inhibition, αvβ5-BaF3 (IC50, nM) [4]: 3 nM
VN adhesion inhibition, αvβ5-BaF3 (IC50, nM) [5]: 1770 nM
IC50 [6]: 18.3 nM

B2: VH4/VL1 Agly-hIgG1(T299A) (antibody, V domains shown)
VH: B1 VH with L4V, E6Q, G16E, A23K, R38K, R67K, R72A, D74T, K76P, L79A
VL: B1 VL with V11L, I21M, S66D, V109L
notes: also called H4/L1
EC50 [1]: 0.4 nM
IC50 [2]: 0.9 nM
EC50 [3]: 126 nM
VN adhesion inhibition, αvβ5-BaF3 (IC50, nM) [4]: 1 nM
VN adhesion inhibition, αvβ5-BaF3 (IC50, nM) [5]: 59.8 nM
IC50 [6]: 2.2 nM

B3: VH0/VL1 Agly-hIgG1(T299A) (antibody, V domains shown)
VH: B1 VH
VL: B1 VL with V11L, I21M, S66D, V109L
notes: also called H0/L1
EC50 [1]: 1.3 nM
IC50 [2]: 11.9 nM
EC50 [3]: 798 nM
VN adhesion inhibition, αvβ5-BaF3 (IC50, nM) [4]: 2.2 nM
VN adhesion inhibition, αvβ5-BaF3 (IC50, nM) [5]: 1620 nM
IC50 [6]: 14.2 nM

B7: VH2/VL2 Agly-hIgG1(T299A) (antibody, V domains shown)
VH: B1 VH with L4V, E6Q, G16E, R38K, R67K, R72A, D74T, K76S, L79A
VL: B1 VL with D1N, V11L, I21M, T22S, A49S, S66D, S69T, V109L
notes: also called H2/L2 (Agly-IgG1)
EC50 [1]: 0.7 nM
IC50 [2]: 1.1 nM
EC50 [3]: 646 nM
VN adhesion inhibition, αvβ5-BaF3 (IC50, nM) [4]: 0.4 nM
VN adhesion inhibition, αvβ5-BaF3 (IC50, nM) [5]: 292 nM
IC50 [6]: 2.8 nM

B9: VH2/VL2 Fab fragment (Fab, V domains shown)
VH: B1 VH with L4V, E6Q, G16E, R38K, R67K, R72A, D74T, K76S, L79A
VL: B1 VL with D1N, V11L, I21M, T22S, A49S, S66D, S69T, V109L
notes: also called H2/L2 (Fab source); H2L2 hIgG1 Fab
Fold change (IC50 against mouse chimeric ALULA) [7]: 1.5 fold
IC50 [7]: 7.3 nM

B11: VH2/VL0 Agly-hIgG1(T299A) (antibody, V domains shown)
VH: B1 VH with L4V, E6Q, G16E, R38K, R67K, R72A, D74T, K76S, L79A
VL: B1 VL
notes: also called H2/L0
EC50 [1]: 0.5 nM
IC50 [2]: 2.4 nM
EC50 [3]: 354 nM
VN adhesion inhibition, αvβ5-BaF3 (IC50, nM) [4]: 1.3 nM
VN adhesion inhibition, αvβ5-BaF3 (IC50, nM) [5]: 476 nM
IC50 [6]: 3.4 nM

B15: Mouse chimeric ALULA Fab fragment (Fab, V domains shown)
VH: EVQVQQSGTVLARPGASVKMSCKASGYTFTSYWMHWVKQRPGQGLEWIGAIYPGNSDTSYNQKFKGKAKLTAVTSPNTAYMELSSLTNEDSAVYYCTTTTYGYDWFAYWGQGTLVTVSA
VL: NIMMTQSPSSLTVSAGEKVTMSCKSSQSVLYSSNQKNYLAWYQQKPGQSPKLLIYWASTRESGVPDRFTGSGSGTDFTLTISSVQAEDLAVYYCHQYLSSLTFGAGTKLELK
notes: also called Mouse chimeric ALULA (Fab source)
IC50 [7]: 4.8 nM

Results, then the binder that gave them:

EC50 [1]: 0.3 nM
IC50 [2]: 1.3 nM
EC50 [3]: 147 nM
VN adhesion inhibition, αvβ5-BaF3 (IC50, nM) [4]: 0.7 nM
VN adhesion inhibition, αvβ5-BaF3 (IC50, nM) [5]: 163 nM
IC50 [6]: 3 nM
B4: VH5/VL1 Agly-hIgG1(T299A) (antibody, V domains shown)
VH: EVQVQQSGGGLVKPGGSLRLSCKASGYTFTSYWMHWVKQAPGKGLEWVGAIYPGNSDTSYNQKFKGKATLSAVTSPNTAYLQMNSLKTEDTAVYYCTTTTYGYDWFAYWGQGTLVTVSS
VL: B1 VL with V11L, I21M, S66D, V109L
notes: also called H5/L1

EC50 [1]: 0.4 nM
IC50 [2]: 3.1 nM
EC50 [3]: 244 nM
VN adhesion inhibition, αvβ5-BaF3 (IC50, nM) [4]: 1 nM
VN adhesion inhibition, αvβ5-BaF3 (IC50, nM) [5]: 218 nM
IC50 [6]: 2.8 nM
B5: VH5/VL0 Agly-hIgG1(T299A) (antibody, V domains shown)
VH: B4 VH
VL: B1 VL
notes: also called H5/L0

Fold change (IC50 against mouse chimeric ALULA) [7]: 1.4 fold
IC50 [7]: 6.8 nM
B6: VH5/VL2 Fab fragment (Fab, V domains shown)
VH: B4 VH
VL: B1 VL with D1N, V11L, I21M, T22S, A49S, S66D, S69T, V109L
notes: also called H5/L2 (Fab source); H5L2 hIgG1 Fab

EC50 [1]: 0.4 nM
IC50 [2]: 0.6 nM
EC50 [3]: 156 nM
VN adhesion inhibition, αvβ5-BaF3 (IC50, nM) [4]: 0.5 nM
VN adhesion inhibition, αvβ5-BaF3 (IC50, nM) [5]: 71.8 nM
IC50 [6]: 1.6 nM
B8: VH4/VL2 Agly-hIgG1(T299A) (antibody, V domains shown)
VH: B4 VH with Q5V, G16E, A68F, L70I, V73D
VL: B1 VL with D1N, V11L, I21M, T22S, A49S, S66D, S69T, V109L
notes: also called H4/L2 (Agly-IgG1)

EC50 [1]: 0.4 nM
IC50 [2]: 1.3 nM
EC50 [3]: 359 nM
VN adhesion inhibition, αvβ5-BaF3 (IC50, nM) [4]: 0.9 nM
VN adhesion inhibition, αvβ5-BaF3 (IC50, nM) [5]: 83.2 nM
IC50 [6]: 2 nM
B10: VH5/VL2 Agly-hIgG1(T299A) (antibody, V domains shown)
VH: B4 VH
VL: B1 VL with D1N, V11L, I21M, T22S, A49S, S66D, S69T, V109L
notes: also called H5/L2 (Agly-IgG1)

EC50 [1]: 0.3 nM
IC50 [2]: 1.7 nM
EC50 [3]: 158 nM
VN adhesion inhibition, αvβ5-BaF3 (IC50, nM) [4]: 1.1 nM
VN adhesion inhibition, αvβ5-BaF3 (IC50, nM) [5]: 74.9 nM
IC50 [6]: 2 nM
B12: VH4/VL0 Agly-hIgG1(T299A) (antibody, V domains shown)
VH: B4 VH with Q5V, G16E, A68F, L70I, V73D
VL: B1 VL
notes: also called H4/L0 (Agly-IgG1)

Fold change (IC50 against mouse chimeric ALULA) [7]: 1.6 fold
IC50 [7]: 7.5 nM
B13: VH4/VL0 Fab fragment (Fab, V domains shown)
VH: B4 VH with Q5V, G16E, A68F, L70I, V73D
VL: B1 VL
notes: also called H4/L0 (Fab source); H4L0 hIgG1 Fab

EC50 [1]: 0.7 nM
IC50 [2]: 2.5 nM
EC50 [3]: 3310 nM
VN adhesion inhibition, αvβ5-BaF3 (IC50, nM) [4]: 0.6 nM
VN adhesion inhibition, αvβ5-BaF3 (IC50, nM) [5]: 124 nM
IC50 [6]: 3.3 nM
B14: VH3/VL2 Agly-hIgG1(T299A) (antibody, V domains shown)
VH: B4 VH with Q5V, Q6E, A68F, P76S
VL: B1 VL with D1N, V11L, I21M, T22S, A49S, S66D, S69T, V109L
notes: also called H3/L2
